According to the supplement of paper PMC11246515:
± gives the standard deviation of the averaged measurements.

Assay: total protein half-life in vivo (active degradation + dilution); higher = more stable protein
[1] = E. coli NCM3722 delta-clpP delta-lon delta-hslV, growth: N-lim chemostat, doubling time 6 h
[2] = E. coli NCM3722 delta-clpP, growth: N-lim chemostat, doubling time 6 h
[3] = E. coli NCM3722 delta-hslV, growth: N-lim chemostat, doubling time 6 h
[4] = E. coli NCM3722 delta-lon, growth: N-lim chemostat, doubling time 6 h
[5] = E. coli NCM3722 delta-smpB, growth: N-lim chemostat, doubling time 6 h
[6] = wild type E. coli NCM3722, growth: C-lim chemostat, doubling time 3 h
[7] = wild type E. coli NCM3722, growth: C-lim chemostat, doubling time 6 h
[8] = wild type E. coli NCM3722, growth: C-lim chemostat, doubling time 12 h
[9] = wild type E. coli NCM3722, growth: N-lim chemostat, doubling time 6 h
[10] = wild type E. coli NCM3722, growth: N-lim chemostat, doubling time 12 h
[11] = wild type E. coli NCM3722, growth: P-lim chemostat, doubling time 6 h
[12] = wild type E. coli NCM3722, growth: P-lim chemostat, doubling time 12 h

Sequence | total protein half-life in vivo [1] | total protein half-life in vivo [2] | total protein half-life in vivo [3] | total protein half-life in vivo [4] | total protein half-life in vivo [5] | total protein half-life in vivo [6] | total protein half-life in vivo [7] | total protein half-life in vivo [8] | total protein half-life in vivo [9] | total protein half-life in vivo [10] | total protein half-life in vivo [11] | total protein half-life in vivo [12]
MTQENEIKRPIQDLEHEPIKPLDNSEKGSKVSQALETVTTTAEKVQRQPVIAHLIRATERFNDRLGNQFGAAITYFSFLSMIPILMVSFAAGGFVLASHPMLLQDIFDKILQNISDPTLAATLKNTINTAVQQRTTVGLVGLAVALYSGINWMGNLREAIRAQSRDVWERSPQDQEKFWVKYLRDFISLIGLLIALIVTLSITSVAGSAQQMIISALHLNSIEWLKPTWRLIGLAISIFANYLLFFWIFWRLPRHRPRKKALIRGTFLAAIGFEVIKIVMTYTLPSLMKSPSGAAFGSVLGLMAFFYFFARLTLFCAAWIATAEYKDDPRMPGKTQP | 4.96 ± 0.058 h | 4.8 ± 0.18 h | 3.99 ± 0.46 h | 3.56 ± 0.56 h | 4.74 ± 0.46 h | 2.41 ± 0.45 h | 4.07 ± 0.12 h | 7.18 ± 1.4 h | 4.21 ± 0.15 h | 6.7 ± 0.46 h | 4.02 ± 0.11 h | 6.92 ± 0.24 h
MTQFTQNTAMPSSLWQYWRGLSGWNFYFLVKFGLLWAGYLNFHPLLNLVFAAFLLMPLPRYSLHRLRHWIALPIGFALFWHDTWLPGPESIMSQGSQVAGFSTDYLIDLVTRFINWQMIGAIFVLLVAWLFLSQWIRITVFVVAILLWLNVLTLAGPSFSLWPAGQPTTTVTTTGGNAAATVAATGGAPVVGDMPAQTAPPTTANLNAWLNNFYNAEAKRKSTFPSSLPADAQPFELLVINICSLSWSDIEAAGLMSHPLWSHFDIEFKNFNSATSYSGPAAIRLLRASCGQTSHTNLYQPANNDCYLFDNLSKLGFTQHLMMGHNGQFGGFLKEVRENGGMQSELMDQTNLPVILLGFDGSPVYDDTAVLNRWLDVTEKDKNSRSATFYNTLPLHDGNHYPGVSKTADYKARAQKFFDELDAFFTELEKSGRKVMVVVVPEHGGALKGDRMQVSGLRDIPSPSITDVPVGVKFFGMKAPHQGAPIVIEQPSSFLAISDLVVRVLDGKIFTEDNVDWKKLTSGLPQTAPVSENSNAVVIQYQDKPYVRLNGGDWVPYPQ | 3.61 ± 0.11 h | 4.03 ± 0.34 h | 2.98 ± 1.2 h | 3.68 ± 0.32 h | 3.66 ± 0.32 h | 2.602 ± 0.019 h | 4.28 ± 0.59 h | 8.3 ± 0.53 h | 4.05 ± 0.25 h | 6.43 ± 1.3 h | 3.91 ± 0.42 h | 6.54 ± 0.083 h
MTQLAIGKPAPLGAHYDGQGVNFTLFSAHAERVELCVFDANGQEHRYDLPGHSGDIWHGYLPDARPGLRYGYRVHGPWQPAEGHRFNPAKLLIDPCARQIDGEFKDNPLLHAGHNEPDYRDNAAIAPKCVVVVDHYDWEDDAPPRTPWGSTIIYEAHVKGLTYLHPEIPVEIRGTYKALGHPVMINYLKQLGITALELLPVAQFASEPRLQRMGLSNYWGYNPVAMFALHPAYACSPETALDEFRDAIKALHKAGIEVILDIVLNHSAELDLDGPLFSLRGIDNRSYYWIREDGDYHNWTGCGNTLNLSHPAVVDYASACLRYWVETCHVDGFRFDLAAVMGRTPEFRQDAPLFTAIQNCPVLSQVKLIAEPWDIAPGGYQVGNFPPLFAEWNDHFRDAARRFWLHYDLPLGAFAGRFAASSDVFKRNGRLPSAAINLVTAHDGFTLRDCVCFNHKHNEANGEENRDGTNNNYSNNHGKEGLGGSLDLVERRRDSIHALLTTLLLSQGTPMLLAGDEHGHSQHGNNNAYCQDNQLTWLDWSQASSGLTAFTAALIHLRKRIPALVENRWWEEGDGNVRWLNRYAQPLSTDEWQNGPKQLQILLSDRFLIAINATLEVTEIVLPAGEWHAIPPFAGEDNPVITAVWQGPAHGLCVFQR | 5.66 ± 0.38 h | 5.35 ± 0.093 h | 5.23 ± 0.074 h | 6.01 ± 0.45 h | 5.62 ± 0.72 h | 3.31 ± 0.7 h | 5.47 ± 0.28 h | 10.5 ± 0.48 h | 5.46 ± 0.36 h | 10.2 ± 0.7 h | 6.42 ± 0.68 h | 11.6 ± 1.6 h
MTQPLVGKQILIVEDEQVFRSLLDSWFSSLGATTVLAADGVDALELLGGFTPDLMICDIAMPRMNGLKLLEHIRNRGDQTPVLVISATENMADIAKALRLGVEDVLLKPVKDLNRLREMVFACLYPSMFNSRVEEEERLFRDWDAMVDNPAAAAKLLQELQPPVQQVISHCRVNYRQLVAADKPGLVLDIAALSENDLAFYCLDVTRAGHNGVLAALLLRALFNGLLQEQLAHQNQRLPELGALLKQVNHLLRQANLPGQFPLLVGYYHRELKNLILVSAGLNATLNTGEHQVQISNGVPLGTLGNAYLNQLSQRCDAWQCQIWGTGGRLRLMLSAE [P0AEV1] | 3.97 ± 0.57 h | 3.09 ± 0.13 h | 3.094 ± 0.028 h | 3.57 ± 0.32 h | 2.961 ± 0.028 h | 2.72 ± 0.33 h | 4.34 ± 0.48 h | 8.52 ± 0.76 h | 3.39 ± 0.12 h | 5.16 ± 0.3 h | 5.53 ± 0.37 h | 10.1 ± 0.53 h
MTQQPQAKYRHDYRAPDYQITDIDLTFDLDAQKTVVTAVSQAVRHGASDAPLRLNGEDLKLVSVHINDEPWTAWKEEEGALVISNLPERFTLKIINEISPAANTALEGLYQSGDALCTQCEAEGFRHITYYLDRPDVLARFTTKIIADKIKYPFLLSNGNRVAQGELENGRHWVQWQDPFPKPCYLFALVAGDFDVLRDTFTTRSGREVALELYVDRGNLDRAPWAMTSLKNSMKWDEERFGLEYDLDIYMIVAVDFFNMGAMENKGLNIFNSKYVLARTDTATDKDYLDIERVIGHEYFHNWTGNRVTCRDWFQLSLKEGLTVFRDQEFSSDLGSRAVNRINNVRTMRGLQFAEDASPMAHPIRPDMVIEMNNFYTLTVYEKGAEVIRMIHTLLGEENFQKGMQLYFERHDGSAATCDDFVQAMEDASNVDLSHFRRWYSQSGTPIVTVKDDYNPETEQYTLTISQRTPATPDQAEKQPLHIPFAIELYDNEGKVIPLQKGGHPVNSVLNVTQAEQTFVFDNVYFQPVPALLCEFSAPVKLEYKWSDQQLTFLMRHARNDFSRWDAAQSLLATYIKLNVARHQQGQPLSLPVHVADAFRAVLLDEKIDPALAAEILTLPSVNEMAELFDIIDPIAIAEVREALTRTLATELADELLAIYNANYQSEYRVEHEDIAKRTLRNACLRFLAFGETHLADVLVSKQFHEANNMTDALAALSAAVAAQLPCRDALMQEYDDKWHQNGLVMDKWFILQATSPAANVLETVRGLLQHRSFTMSNPNRIRSLIGAFAGSNPAAFHAEDGSGYLFLVEMLTDLNSRNPQVASRLIEPLIRLKRYDAKRQEKMRAALEQLKGLENLSGDLYEKITKALA | 5.11 ± 0.53 h | 4.45 ± 0.1 h | 4.27 ± 0.086 h | 4.48 ± 0.29 h | 4.38 ± 0.084 h | 3.05 ± 0.19 h | 5.55 ± 0.11 h | 10.5 ± 0.56 h | 4.36 ± 0.11 h | 6.63 ± 0.16 h | 5.89 ± 0.069 h | 11.3 ± 0.68 h
MTQTLLAIENLSVGFRHQQTVRTVVNDVSLQIEAGETLALVGESGSGKSVTALSILRLLPSPPVEYLSGDIRFHGESLLHASDQTLRGVRGNKIAMIFQEPMVSLNPLHTLEKQLYEVLSLHRGMRREAARGEILNCLDRVGIRQAAKRLTDYPHQLSGGERQRVMIAMALLTRPELLIADEPTTALDVSVQAQILQLLRELQGELNMGMLFITHNLSIVRKLAHRVAVMQNGRCVEQNYAATLFASPTHPYTQKLLNSEPSGDPVPLPEPASTLLDVEQLQVAFPIRKGILKRIVDHNVVVKNISFTLRAGETLGLVGESGSGKSTTGLALLRLINSQGSIIFDGQPLQNLNRRQLLPIRHRIQVVFQDPNSSLNPRLNVLQIIEEGLRVHQPTLSAAQREQQVIAVMHEVGLDPETRHRYPAEFSGGQRQRIAIARALILKPSLIILDEPTSSLDKTVQAQILTLLKSLQQKHQLAYLFISHDLHVVRALCHQVIILRQGEVVEQGPCARVFATPQQEYTRQLLALS |  | 5.76 ± 0.31 h | 6.42 ± 0.031 h | 4.55 ± 0.74 h | 5.67 ± 0.15 h | 3 ± 0.32 h | 5.64 ± 0.14 h | 13.1 ± 0.73 h | 5.87 ± 0.26 h | 11.6 h | 6.17 ± 0.13 h | 11.9 ± 0.82 h
MTQTLSQLENSGAFIERHIGPDAAQQQEMLNAVGAQSLNALTGQIVPKDIQLATPPQVGAPATEYAALAELKAIASRNKRFTSYIGMGYTAVQLPPVILRNMLENPGWYTAYTPYQPEVSQGRLEALLNFQQVTLDLTGLDMASASLLDEATAAAEAMAMAKRVSKLKNANRFFVASDVHPQTLDVVRTRAETFGFEVIVDDAQKVLDHQDVFGVLLQQVGTTGEIHDYTALISELKSRKIVVSVAADIMALVLLTAPGKQGADIVFGSAQRFGVPMGYGGPHAAFFAAKDEYKRSMPGRIIGVSKDAAGNTALRMAMQTREQHIRREKANSNICTSQVLLANIASLYAVYHGPVGLKRIANRIHRLTDILAAGLQQKGLKLRHAHYFDTLCVEVADKAGVLTRAEAAEINLRSDILNAVGITLDETTTRENVMQLFNVLLGDNHGLDIDTLDKDVAHDSRSIQPAMLRDDEILTHPVFNRYHSETEMMRYMHSLERKDLALNQAMIPLGSCTMKLNAAAEMIPITWPEFAELHPFCPPEQAEGYQQMIAQLADWLVKLTGYDAVCMQPNSGAQGEYAGLLAIRHYHESRNEGHRDICLIPASAHGTNPASAHMAGMQVVVVACDKNGNIDLTDLRAKAEQAGDNLSCIMVTYPSTHGVYEETIREVCEVVHQFGGQVYLDGANMNAQVGITSPGFIGADVSHLNLHKTFCIPHGGGGPGMGPIGVKAHLAPFVPGHSVVQIEGMLTRQGAVSAAPFGSASILPISWMYIRMMGAEGLKKASQVAILNANYIASRLQDAFPVLYTGRDGRVAHECILDIRPLKEETGISELDIAKRLIDYGFHAPTMSFPVAGTLMVEPTESESKVELDRFIDAMLAIRAEIDQVKAGVWPLEDNPLVNAPHIQSELVAEWAHPYSREVAVFPAGVADKYWPTVKRLDDVYGDRNLFCSCVPISEYQ | 4.44 ± 0.46 h | 3.621 ± 0.013 h | 4.09 ± 0.11 h | 4 ± 0.3 h | 3.81 ± 0.18 h | 3.022 ± 0.029 h | 4.95 ± 0.14 h | 8.75 ± 0.28 h | 4.02 ± 0.13 h | 6.79 ± 0.18 h | 6.117 ± 0.035 h | 11 ± 0.55 h
MTQYWLGLDCGGSWLKAGLYDREGREAGVQRLPLCALSPQPGWAERDMAELWQCCMAVIRALLTHSGVSGEQIVGIGISAQGKGLFLLDKNDKPLGNAILSSDRRAMEIVRRWQEDGIPEKLYPLTRQTLWTGHPVSLLRWLKEHEPERYAQIGCVMMTHDYLRWCLTGVKGCEESNISESNLYNMSLGEYDPCLTDWLGIAEINHALPPVVGSAEICGEITAQTAALTGLKAGTPVVGGLFDVVSTALCAGIEDEFTLNAVMGTWAVTSGITRGLRDGEAHPYVYGRYVNDGEFIVHEASPTSSGNLEWFTAQWGEISFDEINQAVASLPKAGGDLFFLPFLYGSNAGLEMTSGFYGMQAIHTRAHLLQAIYEGVVFSHMTHLNRMRERFTDVHTLRVTGGPAHSDVWMQMLADVSGLRIELPQVEETGCFGAALAARVGTGVYHNFSEAQRDLRHPVRTLLPDMTAHQLYQKKYQRYQHLIAALQGFHARIKEHTL |  |  |  |  |  |  | 4.05 ± 1.2 h | 7.19 ± 1.2 h |  |  |  | 
MTRIKINARRIFSLLIPFFFFTSVHAEQTAAPAKPVTVEAKNETFAPQHPDQYLSWKATSEQSERVDALAEDPRLVILWAGYPFSRDYNKPRGHAFAVTDVRETLRTGAPKNAEDGPLPMACWSCKSPDVARLIQKDGEDGYFHGKWARGGPEIVNNLGCADCHNTASPEFAKGKPELTLSRPYAARAMEAIGKPFEKAGRFDQQSMVCGQCHVEYYFDGKNKAVKFPWDDGMKVENMEQYYDKIAFSDWTNSLSKTPMLKAQHPEYETWTAGIHGKNNVTCIDCHMPKVQNAEGKLYTDHKIGNPFDNFAQTCANCHTQDKAALQKVVAERKQSINDLKIKVEDQLVHAHFEAKAALDAGATEAEMKPIQDDIRHAQWRWDLAIASHGIHMHAPEEGLRMLGTAMDKAADARTKLARLLATKGITHEIQIPDISTKEKAQQAIGLNMEQIKAEKQDFIKTVIPQWEEQARKNGLLSQ [P0ABK9] | 3.84 h | 5.87 h |  |  |  |  |  | > 16 h |  | 10.5 ± 0.82 h |  | 
